Patent publication US20140348819A1, “Methods of Treating Cancer” (Dana-Farber Cancer Institute, Inc., priority 2011, published 2014)

Tested on: six V600E BRAF melanoma cell lines
Assay: Screening of recombinant RTK ligands for ability to confer resistance to BRAFi (PLX4720) or MEKi (PD184352) (Table 4)
Type: cell-based, human
Design: ability of recombinant RTK ligand to confer resistance / ability of recombinant RTK ligand to confer resistance (screening value): scale not given here
Procedure, shortened: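 Resistance to BRAFi (PLX4720) or MEKi (PD184352) was tested in six V600E BRAF melanoma lines given one of 22 recombinant RTK ligands. For a subset of RTKs, activation was checked by high-throughput tyrosine kinase phosphorylation profiling and western blot.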

B1: GDNF (protein, UniProt P39905 78-211, looked up)
Glial cell line-derived …: SPDKQMAVLPRRERNRQAAAANPENSRGKGRRGQRGKNRGCVLTAIHLNVTDLGLGYETKEELIFRYCSGSCDAAETTYDKILKNLSRNRRLVSDKVGQACCRPIAFDDDLSFLDDNLVYHILRKHSAKRCGCI
- ability of recombinant RTK ligand to confer resistance (A2058, PD184352 - 1 uM, ligand 0.4 ng/ml): 0.98
- ability of recombinant RTK ligand to confer resistance (A2058, PD184352 - 1 uM, ligand 1.6 ng/ml): 1.03
- ability of recombinant RTK ligand to confer resistance (A2058, PD184352 - 1 uM, ligand 6.25 ng/ml): 1.00
- ability of recombinant RTK ligand to confer resistance (A2058, PD184352 - 1 uM, ligand 25 ng/ml): 0.93
- ability of recombinant RTK ligand to confer resistance (A2058, PD184352 - 1 uM, ligand 100 ng/ml): 0.92
- ability of recombinant RTK ligand to confer resistance (A2058, PLX4720 - 2 uM, ligand 0.4 ng/ml): 0.97
- ability of recombinant RTK ligand to confer resistance (A2058, PLX4720 - 2 uM, ligand 1.6 ng/ml): 0.97
- ability of recombinant RTK ligand to confer resistance (A2058, PLX4720 - 2 uM, ligand 6.25 ng/ml): 0.98
- ability of recombinant RTK ligand to confer resistance (A2058, PLX4720 - 2 uM, ligand 25 ng/ml): 0.94
- ability of recombinant RTK ligand to confer resistance (A2058, PLX4720 - 2 uM, ligand 100 ng/ml): 0.97
- ability of recombinant RTK ligand to confer resistance (C32, PD184352 - 1 uM, ligand 0.4 ng/ml): 1.08
- ability of recombinant RTK ligand to confer resistance (C32, PD184352 - 1 uM, ligand 1.6 ng/ml): 1.13
- ability of recombinant RTK ligand to confer resistance (C32, PD184352 - 1 uM, ligand 6.25 ng/ml): 1.03
- ability of recombinant RTK ligand to confer resistance (C32, PD184352 - 1 uM, ligand 25 ng/ml): 0.96
- ability of recombinant RTK ligand to confer resistance (C32, PD184352 - 1 uM, ligand 100 ng/ml): 0.94
- ability of recombinant RTK ligand to confer resistance (C32, PLX4720 - 2 uM, ligand 0.4 ng/ml): 1.04
- ability of recombinant RTK ligand to confer resistance (C32, PLX4720 - 2 uM, ligand 1.6 ng/ml): 1.11
- ability of recombinant RTK ligand to confer resistance (C32, PLX4720 - 2 uM, ligand 6.25 ng/ml): 1.03
- ability of recombinant RTK ligand to confer resistance (C32, PLX4720 - 2 uM, ligand 25 ng/ml): 0.91
- ability of recombinant RTK ligand to confer resistance (C32, PLX4720 - 2 uM, ligand 100 ng/ml): 0.94
- ability of recombinant RTK ligand to confer resistance (Colo 829, PD184352 - 1 uM, ligand 0.4 ng/ml): 0.95
- ability of recombinant RTK ligand to confer resistance (Colo 829, PD184352 - 1 uM, ligand 1.6 ng/ml): 0.96
- ability of recombinant RTK ligand to confer resistance (Colo 829, PD184352 - 1 uM, ligand 6.25 ng/ml): 0.96
- ability of recombinant RTK ligand to confer resistance (Colo 829, PD184352 - 1 uM, ligand 25 ng/ml): 1.07
- ability of recombinant RTK ligand to confer resistance (Colo 829, PD184352 - 1 uM, ligand 100 ng/ml): 0.98
- ability of recombinant RTK ligand to confer resistance (Colo 829, PLX4720 - 2 uM, ligand 0.4 ng/ml): 1.00
- ability of recombinant RTK ligand to confer resistance (Colo 829, PLX4720 - 2 uM, ligand 1.6 ng/ml): 1.00
- ability of recombinant RTK ligand to confer resistance (Colo 829, PLX4720 - 2 uM, ligand 6.25 ng/ml): 0.96
- ability of recombinant RTK ligand to confer resistance (Colo 829, PLX4720 - 2 uM, ligand 25 ng/ml): 1.09
- ability of recombinant RTK ligand to confer resistance (Colo 829, PLX4720 - 2 uM, ligand 100 ng/ml): 1.00
- ability of recombinant RTK ligand to confer resistance (G-361, PD184352 - 1 uM, ligand 0.4 ng/ml): 1.00
- ability of recombinant RTK ligand to confer resistance (G-361, PD184352 - 1 uM, ligand 1.6 ng/ml): 0.94
- ability of recombinant RTK ligand to confer resistance (G-361, PD184352 - 1 uM, ligand 6.25 ng/ml): 1.04
- ability of recombinant RTK ligand to confer resistance (G-361, PD184352 - 1 uM, ligand 25 ng/ml): 0.92
- ability of recombinant RTK ligand to confer resistance (G-361, PD184352 - 1 uM, ligand 100 ng/ml): 0.95
- ability of recombinant RTK ligand to confer resistance (G-361, PLX4720 - 2 uM, ligand 0.4 ng/ml): 0.94
- ability of recombinant RTK ligand to confer resistance (G-361, PLX4720 - 2 uM, ligand 1.6 ng/ml): 0.94
- ability of recombinant RTK ligand to confer resistance (G-361, PLX4720 - 2 uM, ligand 6.25 ng/ml): 0.93
- ability of recombinant RTK ligand to confer resistance (G-361, PLX4720 - 2 uM, ligand 25 ng/ml): 0.87
- ability of recombinant RTK ligand to confer resistance (G-361, PLX4720 - 2 uM, ligand 100 ng/ml): 0.79
- ability of recombinant RTK ligand to confer resistance (SK-MEL-5, PD184352 - 1 uM, ligand 0.4 ng/ml): 0.99
- ability of recombinant RTK ligand to confer resistance (SK-MEL-5, PD184352 - 1 uM, ligand 1.6 ng/ml): 0.89
- ability of recombinant RTK ligand to confer resistance (SK-MEL-5, PD184352 - 1 uM, ligand 6.25 ng/ml): 1.03
- ability of recombinant RTK ligand to confer resistance (SK-MEL-5, PD184352 - 1 uM, ligand 25 ng/ml): 0.94
- ability of recombinant RTK ligand to confer resistance (SK-MEL-5, PD184352 - 1 uM, ligand 100 ng/ml): 0.93
- ability of recombinant RTK ligand to confer resistance (SK-MEL-5, PLX4720 - 2 uM, ligand 0.4 ng/ml): 1.04
- ability of recombinant RTK ligand to confer resistance (SK-MEL-5, PLX4720 - 2 uM, ligand 1.6 ng/ml): 0.71
- ability of recombinant RTK ligand to confer resistance (SK-MEL-5, PLX4720 - 2 uM, ligand 6.25 ng/ml): 1.00
- ability of recombinant RTK ligand to confer resistance (SK-MEL-5, PLX4720 - 2 uM, ligand 25 ng/ml): 1.01
- ability of recombinant RTK ligand to confer resistance (SK-MEL-5, PLX4720 - 2 uM, ligand 100 ng/ml): 1.08
- ability of recombinant RTK ligand to confer resistance (SK-MEL-28, PD184352 - 1 uM, ligand 0.4 ng/ml): 0.99
- ability of recombinant RTK ligand to confer resistance (SK-MEL-28, PD184352 - 1 uM, ligand 1.6 ng/ml): 1.03
- ability of recombinant RTK ligand to confer resistance (SK-MEL-28, PD184352 - 1 uM, ligand 6.25 ng/ml): 1.02
- ability of recombinant RTK ligand to confer resistance (SK-MEL-28, PD184352 - 1 uM, ligand 25 ng/ml): 0.92
- ability of recombinant RTK ligand to confer resistance (SK-MEL-28, PD184352 - 1 uM, ligand 100 ng/ml): 0.96
- ability of recombinant RTK ligand to confer resistance (SK-MEL-28, PLX4720 - 2 uM, ligand 0.4 ng/ml): 1.04
- ability of recombinant RTK ligand to confer resistance (SK-MEL-28, PLX4720 - 2 uM, ligand 1.6 ng/ml): 0.91
- ability of recombinant RTK ligand to confer resistance (SK-MEL-28, PLX4720 - 2 uM, ligand 6.25 ng/ml): 1.05
- ability of recombinant RTK ligand to confer resistance (SK-MEL-28, PLX4720 - 2 uM, ligand 25 ng/ml): 0.97
- ability of recombinant RTK ligand to confer resistance (SK-MEL-28, PLX4720 - 2 uM, ligand 100 ng/ml): 1.01
